This data set concerns CC(=O)N[C@H]1[C@H](Oc2ccc([N+](=O)[O-])cc2)O[C@H](CO)[C@@H](O[C@@H]2O[C@H](CO)[C@@H](O)[C@H](O)[C@H]2NC(C)=O)[C@@H]1O. Briefly: purified protein. It is filed as biochemical, Clostridium paraputrificum. The following applies: 0.1 M citric acid-potassium phosphate pH 5.5, 37 °C.

Take “rChit62J4cat (Clostridium paraputrificum)”: where the note is “no added compound”, the Km (in general, the concentration of substrate that gives half-maximal velocity) worked out at 190 ± 20 µM and the kcat (in general, the maximal rate divided by the concentration of active sites) was 31.4 ± 0.8 s⁻¹.

With rChit62J4 (Clostridium paraputrificum), under “no added compound”, the Km is 240 ± 20 µM and the kcat was found to be 31.5 ± 0.9 s⁻¹.

With “crChit62J4 (crude/isolated Chit62J4) (Clostridium paraputrificum)”, for the setting “native enzyme”, the Michaelis constant (Km) is 570 µM and the kcat stood at 13.5 s⁻¹.

The record behind these values is paper PMC8512545, “Chitinase Chit62J4 Essential for Chitin Processing by Human Microbiome Bacterium Clostridium paraputrificum J4” (Molecules, 2021).
